{
  "source": "patent US20020045191A1",
  "about": "“Inhibition of the SRC kinase family pathway as a method of treating HBV infection and hepatocellular carcinoma” (priority 2000, published 2002)",
  "key": {"AP-1": {"system": "AP-1", "assay": "AP-1 electrophoretic mobility shift assay (EMSA), HBx-transfected Chang cells", "type": "cell-based, human", "conditions": "cotransfection of increasing amounts of Csk plasmid", "procedure": "(FIG. 3A) Cell extracts were prepared for AP-1 EMSA as described (Benn et al., 1996, supra) using a ^32P-labeled dsDNA oligonucleotide probe containing one AP-1 binding site. Reactions were carried out using 3 μg of nuclear extract, labeled oligonuleotide and 1 μg of poly(dI-dC) for 30 min at 23° C. Protein-DNA complexes were resolved by electrophoresis on 4% polyacrylamide gels and visualized by PhosphorImage 5analysis. As a positive control for AP-1 stimulation, cells were treated with 20 μM TPA for 30 min.\nHere it is shown that HBx activation of AP-1 DNA binding activity and AP-1 directed transcription, both involve an essential requirement for HBx activation of Src tyrosine kinases. Chang cells were transfected with plasmids expressing HBx or HBxo proteins, with or without cotransfection of Csk, serum starved and nuclear extracts prepared for electrophoretic mobility shift assay (EMSA) using equal amounts of nuclear extracts and a ^32P-labeled dsDNA probe containing one AP-1 binding site, as described (Benn et al., 1996 supra). Cotransfection of increasing amounts of the Csk expressing plasmid suppressed HBx induction of AP-1 DNA binding complexes in a titratable manner (FIG. 3A). […]"}, "WHV [1]": {"system": "WHV", "assay": "WHV RNA: Northern blot analysis, Chang cells", "type": "cell-based, Woodchuck Hepatitis B Virus", "conditions": "co-expression with wtWHV", "procedure": "Chang cells were washed twice with PBS and total RNA prepared according to the manufacturer's instructions (RNeasy mini kit; Qiagen). 15 μg total RNA per sample were resolved through a 1.2% formaldehyde-agarose gel (Sambrook et al., 1989, supra), transferred to Duralon UV membrane, and pre-hybridized in Quick-Hyb solution (Stratagene) at 65° C. Hybridization to 32P-labeled full length WHV probe was carried out in the same solution at 65° C., washed as described above, and autoradiographed for 1 day.\n(§1) To assess whether HBx activation of a Src signaling cascade plays an essential role in transcriptional upregulation of the viral mRNAs, Chang cells were co-transfected with wtWHV and either RasDN or Csk plasmids, and the RNA visualized by Northern analysis (FIG. 7, lanes 2 and 3). […] To ensure that the decrease in synthesis of WHV RNA by Csk was not the unforseen consequence of Csk inhibition of the CMV promoter (which drives synthesis of the WHV pregenomic RNA), control experiments assessing the effect of Csk on a CMV-βgal reporter were carried out. […] However, the WHx-induced increase in mRNA abundance (˜3-5 fold) is much less then the HBx-induced increase in viral DNA synthesis (˜20-30 fold). […] The stimulation of Src signaling cascades by HBx must therefore promote WHV replication independent of the effect of WHx on viral transcription."}, "WHV [2]": {"system": "WHV", "assay": "WHV replication: Southern blot of core-associated viral DNA, Chang cells", "type": "cell-based, Woodchuck Hepatitis B Virus", "conditions": "co-expression with wtWHV, 3 days post-transfection", "procedure": "FIG. 7. WHx requires activation of Src family kinase for WHV replication. Chang cells were co-transfected with 20 μg PCWHV, wtWHV, wtWHV and RasDN (dominant-negative) (10 μg), or wtWHV and Csk (10 μg). Three days post-transfection viral core-associated DNA was isolated, purified, and subjected to Southern blot analysis using a full-length ^32P-labeled WHV genomic probe.\nChang cells were transfected with infectious WHV clones, (2×10 cm plates) were washed twice with PBS and lysed in 500 μl lysis buffer/10 cm plate (20 mM Tris HCl pH 7.5, 1 mM EDTA, 100 mM NaCl, 0.5% NP-40) for 10-15 minutes. Lysates were centrifuged at 12,000× g for 30 minutes, MgCl2 was adjusted to 10 mM, DNAseI (Boehringer Mannheim) was added to 20 U/ml and the lysates were incubated at 37° C. for 2 hours. Following DNAse I treatment, the lysates were centrifuged for 5 min at 12,000× g, layered onto a 20% sucrose cushion (300 μl of 20% sucrose in 20 mM Tris HCl pH 8.0, 150 mM NaCl) and centrifuged for 178,000× g for 3 hours at 20° C. […]\nChang cells were co-transfected with plasmids encoding either wtWHV, PCWHV, wtWHV and RasDN, or wtWHV and Csk, intracellular core-associated viral DNA was isolated 3 days post-transfection, and purified viral DNA analyzed by Southern blot hybridization as described above (FIG. 7)."}, "MAP kinase (ERK2) [3]": {"system": "MAP kinase (ERK2)", "assay": "MAP kinase (ERK2) MBP kinase assay during WHV replication in Chang cells", "type": "cell-based, human", "conditions": "co-expression with wtWHV", "procedure": "FIG. 6. Woodchuck Hepatitis B Virus (WHV) HBx protein (WHx) activates a Src-Ras signaling cascade during WHV replication in cultured cells. […] Eighteen hours post-transfection, cells were serum-starved in 0.5% CS for 20 hours, MAP kinase (ERK-2) was immunoprecipitated from equal amounts of cell lysates and pellets were subjected to an in vitro MBP kinase assay.\nTo assay for MAP kinase activity, cells were lysed in freshly prepared lysis buffer (10 mM Tris HC1 pH 7.5, 1% Triton X-100, 0.5% NP-40, 1 mM EDTA, 1 mM EGTA, 1 mM Na3VO4, 50 mM NaF, 1 mM PMSF, 40 mM PPi, 10 μg/ml aprotinin, and 10 μg/ml leupeptin) and MAP kinase was immunoprecipitated using 1μg/ml anti-ERK2 antibodies from equal amounts of protein. After 4 washes with lysis buffer, and 2 with kinase buffer (20 mM Hepes pH 7.4, 10 mM MgCl2), the immunoprecipitates were incubated with kinase buffer including 0.5 mg/ml myelin basic protein (MBP, Sigma), 10 mM ATP and 5 μCi [γ-^32P]ATP for 30 minutes at 30° C. […]\nTo determine whether WHx also requires activation of Src family kinases for stimulation of Ras signaling during ongoing viral replication, Chang cells were co-transfected with plasmids synthesizing wtWHV and dominant-negative Ras (RasDN), dominant-negative Src (SrcK^−), or Csk proteins, and activation of MAP kinase was measured. […]"}, "N-Myc": {"system": "N-Myc", "assay": "N-Myc immunoblot of nuclear extracts, HBx-transfected Chang cells", "type": "cell-based, human", "conditions": "co-expression with HBx, serum-starved 20 hours", "procedure": "Chang cells were transfected with plasmids expressing HBxo, HBx, Csk, SrcK^−, FynK^−, and the dominant-negative Ras (RasN17). The Ras N17 mutant was initially shown to preferentially bind GDP in vitro and to inhibit cellular proliferation when stably expressed in NIH 3T3 cells (Feig et al., 1988, Moll. Cell Biol. 8:3235-3243). Transfected cells were serum-starved for 20 hours, nuclear extracts prepared, equal amounts of protein resolved by SDS-PAGE and immunoblotted with anti-N-Myc antibodies. Expression of transfected HBx elevates the amount of N-Myc protein 3-4 fold. […] The inability of dominant-negative Ras or Fyn proteins to block Src activation is consistent with the report by Barone and Courtneidge (1995, supra). Co-expression of HBx with the dominant-negative Ras had no effect on induction of N-Myc by HBx, and neither did the expression of dominant-negative Fyn protein. Whether other Src family members (e.g. Yes or Lyn) are involved in N-Myc induction by HBx was not tested in these experiments."}, "MAP kinase (ERK2) [4]": {"system": "MAP kinase (ERK2)", "assay": "MAP kinase (ERK2) immunoprecipitation / MBP kinase assay in HBx-transfected Chang cells", "type": "cell-based, human", "procedure": "(FIG. 2B) ERK2 was immunoprecipitated from equal amounts of cell lysates analyzed by in vitro phosphorylation of myelin basic protein (MBP) using [γ-^32P] ATP. […] Cells were stimulated with 100 μg/ml of insulin (Intergen) for 10 min.\nTo assay for MAP kinase activity, cells were lysed in freshly prepared lysis buffer (10 mM Tris HC1 pH 7.5, 1% Triton X-100, 0.5% NP-40, 1 mM EDTA, 1 mM EGTA, 1 mM Na3VO4, 50 mM NaF, 1 mM PMSF, 40 mM PPi, 10 μg/ml aprotinin, and 10 μg/ml leupeptin) and MAP kinase was immunoprecipitated using 1μg/ml anti-ERK2 antibodies from equal amounts of protein. After 4 washes with lysis buffer, and 2 with kinase buffer (20 mM Hepes pH 7.4, 10 mM MgCl2), the immunoprecipitates were incubated with kinase buffer including 0.5 mg/ml myelin basic protein (MBP, Sigma), 10 mM ATP and 5 μCi [γ-^32P]ATP for 30 minutes at 30° C. The reactions were stopped by the addition of 2× sample loading buffer (Sambrook et al. 1989, supra), resolved by 15% SDS-PAGE and visualized by autoradiography. Assays for activation of JNK MAP kinases were carried out exactly as described above, except that the immunoprecipitated JNK was incubated with 5 μg purified GST-c-Jun (Benn et al., 1996, supra) and 10 μCi [γ-^32P]ATP, and resolved by 10% SDS-PAGE.\nTo test whether HBx activation of the Src family of kinases is required for stimulation of Ras signaling by HBx, Chang cells were transfected at low density with plasmids expressing HBxo, HBx or HBx and Csk, serum-starved for 20 hours, 2% serum restored for 2 hours to permit protein synthesis, and activation of immunoprecipitated MAP kinase at the end of the Ras-MAP kinase cascade assayed by incubation with myelin basic protein (MBP) and [γ-^32P]ATP (FIG. 2). Expression of HBx induces a strong activation in the ability of MAP kinase to phosphorylate MBP that is abolished upon co-transfection of HBx with Csk. […]"}, "[5]": {"system": "AP-1 dependent transcription", "assay": "AP-1 dependent luciferase reporter, HBx-transfected Chang cells", "type": "cell-based, human", "conditions": "co-expression with Csk", "procedure": "(FIG. 3B) Cells were transfected as above but contained in addition 3 μg of plasmid pAP-1Luc, which encodes the luciferase reporter under the control of four AP-1 binding sites and a minimal TATA box promoter. Serum starved cells were harvested 18 h after transfection and the level of expression of the luciferase reporter assayed. Results are the average of three independent experiments.\nHere it is shown that HBx activation of AP-1 DNA binding activity and AP-1 directed transcription, both involve an essential requirement for HBx activation of Src tyrosine kinases. Chang cells were transfected with plasmids expressing HBx or HBxo proteins, with or without cotransfection of Csk, serum starved and nuclear extracts prepared for electrophoretic mobility shift assay (EMSA) using equal amounts of nuclear extracts and a ^32P-labeled dsDNA probe containing one AP-1 binding site, as described (Benn et al., 1996 supra). Cotransfection of increasing amounts of the Csk expressing plasmid suppressed HBx induction of AP-1 DNA binding complexes in a titratable manner (FIG. 3A). Finally, cells were cotransfected with plasmids expressing HBx or HBxo and an AP-1 dependent luciferase reporter under the control of a minimal promoter, with and without a Csk expression plasmid (FIG. 3B)."}, "CMV promoter": {"system": "CMV promoter", "assay": "CMV-βgal reporter control (β-galactosidase activity)", "type": "cell-based", "conditions": "co-expression of Csk with CMV-βgal", "source_text": "as §1"}},
  "data": [
    {"molecule": "Csk: protein tyrosine kinase C-terminal Src kinase, physiologic inhibitor of Src, expressed from plasmid (protein, UniProt P41240 2-450, looked up) Tyrosine-protein kinase CSK: SAIQAAWPSGTECIAKYNFHGTAEQDLPFCKGDVLTIVAVTKDPNWYKAKNKVGREGIIPANYVQKREGVKAGTKLSLMPWFHGKITREQAERLLYPPETGLFLVRESTNYPGDYTLCVSCDGKVEHYRIMYHASKLSIDEEVYFENLMQLVEHYTSDADGLCTRLIKPKVMEGTVAAQDEFYRSGWALNMKELKLLQTIGKGEFGDVMLGDYRGNKVAVKCIKNDATAQAFLAEASVMTQLRHSNLVQLLGVIVEEKGGLYIVTEYMAKGSLVDYLRSRGRSVLGGDCLLKFSLDVCEAMEYLEGNNFVHRDLAARNVLVSEDNVAKVSDFGLTKEASSTQDTGKLPVKWTAPEALREKKFSTKSDVWSFGILLWEIYSFGRVPYPRIPLKDVVPRVEKGYKMDAPDGCPPAVYEVMKNCWHLDAAMRPSFLQLREQLEHIKTHELHL", "values": [
      {"measurement": "HBx induction of AP-1 DNA binding complexes", "setting": "AP-1", "result": "suppressed"},
      {"measurement": "reduction of WHV RNA level", "setting": "WHV [1]", "result": "3-5 fold"},
      {"measurement": "WHV replication (core-associated viral DNA)", "setting": "WHV [2]", "result": "completely abolished"},
      {"measurement": "downstream activation of MAP kinase by wtWHV", "setting": "MAP kinase (ERK2) [3]", "result": "efficiently inhibited"},
      {"measurement": "increase in N-Myc protein by HBx", "setting": "N-Myc", "result": "impaired"},
      {"measurement": "HBx activation of ERK2", "setting": "MAP kinase (ERK2) [4]; co-expression with HBx, serum-starved in 0.5% CS for 24 hours", "result": "impaired"},
      {"measurement": "HBx activation of MAP kinase (phosphorylation of MBP)", "setting": "MAP kinase (ERK2) [4]; co-transfection of HBx with Csk, serum-starved 20 hours, 2% serum 2 hours", "result": "abolished"},
      {"measurement": "activation of MAP kinase by insulin", "setting": "MAP kinase (ERK2) [4]; overexpression of Csk", "result": "only slightly impaired"},
      {"measurement": "HBx induced activation of AP-1 dependent transcription", "setting": "[5]", "result": "fully blocked"},
      {"measurement": "expression of βgal protein from CMV-βgal (β-galactosidase activity)", "setting": "CMV promoter", "result": "did not significantly alter"}
    ]}
  ]
}
